Test results from patent US9803013B2, “Biological materials and uses thereof” (BioInvent International AB, priority 2005, dated 2017).

Assays:
SP-53 [1] = test: Apoptosis induction by cross-linked IgG (Annexin V/PI); assay type: cell-based, human; conditions: viable cells after 6 hour incubation, crosslinked, compared to control FITC-8 IgG1
Procedure: (§1) 2×10^5 B lymphoma cells (Raji or Ramos) or Jurkat T cells were incubated with serially diluted and detoxified scFv's in culture medium for 1 h on ice.
(§2) When whole IgGs were used for apoptosis induction, cross-linking reagent was replaced by goat Fab′2 anti-human Fc γ antibody (Jackson ImmunoResearch) with minimal cross-reactivity with non-IgG antibody isotypes (to avoid unspecific cross-linking of endogenous B lymphoma associated surface immunoglobulins) and incubated, as described above, for 6 h.
(§3) Apoptotic cells were, unless otherwise stated, detected by combined staining with Annexin V Alexa Fluor 488 (AV) and Propidium Iodide (PI) (both from Molecular Probes, Invitrogen) and subsequent flow-cytometric analysis, Cells were defined as viable (AV−/PI−), early apoptotic (AV+/PI−) or late apoptotic/necrotic (AV+/PI+). AV and PI signals were recorded in the FL1 and FL2 or FL3 channels (as indicated in the text), respectively, using a FACSCalibur instrument (BD Biosciences).
(§4) • ^aApoptosis Induction; determined by percentage of viable cells after 6 hour incubation with any of the human antibodies, crosslinked with Goat anti-Human (gamma) Fc specific antibody; −, viability not affected; +, 95-80%; ++, 79-60%; +++, 59-40% viable cells compared to control (human FITC-8 IgG1). […] The cell line dependent MFI value of control human FITC-8 IgG antibody was subtracted from the MFI of each human antibody.

BJAB [2] = test: as above; assay type: cell-based, human; conditions: viable cells after 6 hour incubation, crosslinked, compared to control FITC-8 IgG1
Procedure: as §1, §2, §3, §4

Reh/KM-3 = test: as above; assay type: cell-based, human; conditions: viable cells after 6 hour incubation, crosslinked, compared to control FITC-8 IgG1
Procedure: as §1, §2, §3, §4

RL [3] = test: as above; assay type: cell-based, human; conditions: viable cells after 6 hour incubation, crosslinked, compared to control FITC-8 IgG1
Procedure: as §1, §2, §3, §4

Jeko-1 [4] = test: as above; assay type: cell-based, human; conditions: viable cells after 6 hour incubation, crosslinked, compared to control FITC-8 IgG1
Procedure: as §1, §2, §3, §4

Granta 519 [5] = test: as above; assay type: cell-based, human; conditions: viable cells after 6 hour incubation, crosslinked, compared to control FITC-8 IgG1
Procedure: as §1, §2, §3, §4

Rec-1 [6] = test: as above; assay type: cell-based, human; conditions: viable cells after 6 hour incubation, crosslinked, compared to control FITC-8 IgG1
Procedure: as §1, §2, §3, §4

MC/CAR [7] = test: as above; assay type: cell-based, human; conditions: viable cells after 6 hour incubation, crosslinked, compared to control FITC-8 IgG1
Procedure: as §1, §2, §3, §4

DOHH-2 [8] = test: as above; assay type: cell-based, human; conditions: viable cells after 6 hour incubation, crosslinked, compared to control FITC-8 IgG1
Procedure: as §1, §2, §3, §4

JVM-2 [9] = test: as above; assay type: cell-based, human; conditions: viable cells after 6 hour incubation, crosslinked, compared to control FITC-8 IgG1
Procedure: as §1, §2, §3, §4

WSU-NHL [10] = test: as above; assay type: cell-based, human; conditions: viable cells after 6 hour incubation, crosslinked, compared to control FITC-8 IgG1
Procedure: as §1, §2, §3, §4

SC-1 [11] = test: as above; assay type: cell-based, human; conditions: viable cells after 6 hour incubation, crosslinked, compared to control FITC-8 IgG1
Procedure: as §1, §2, §3, §4

CL-01 [12] = test: as above; assay type: cell-based, human; conditions: viable cells after 6 hour incubation, crosslinked, compared to control FITC-8 IgG1
Procedure: as §1, §2, §3, §4

NCEB-1 [13] = test: as above; assay type: cell-based, human; conditions: viable cells after 6 hour incubation, crosslinked, compared to control FITC-8 IgG1
Procedure: as §1, §2, §3, §4

MC/CAR [14] = test: IgG binding to multiple myeloma cell line, flow cytometry MFI; parameters: species or system human; conditions: control FITC-8 IgG MFI subtracted
Procedure: as §4

SP-53 [15] = test: IgG binding to B lymphoma cell line, flow cytometry MFI; parameters: species or system human; conditions: SP-53, Mantle cell Lymphoma; control FITC-8 IgG MFI subtracted
Procedure: as §4

BJAB [16] = test: as above; parameters: species or system human; conditions: Burkitt's Lymphoma, control FITC-8 IgG MFI subtracted
Procedure: as §4

RL [17] = test: as above; parameters: species or system human; conditions: Follicular Lymphoma, control FITC-8 IgG MFI subtracted
Procedure: as §4

Jeko-1 [18] = test: as above; parameters: species or system human; conditions: Jeko-1, Mantle cell Lymphoma; control FITC-8 IgG MFI subtracted
Procedure: as §4

Granta 519 [19] = test: as above; parameters: species or system human; conditions: Granta 519, Mantle cell Lymphoma; control FITC-8 IgG MFI subtracted
Procedure: as §4

Rec-1 [20] = test: as above; parameters: species or system human; conditions: Rec-1, Mantle cell Lymphoma; control FITC-8 IgG MFI subtracted
Procedure: as §4

Raji = test: as above; parameters: species or system human; conditions: Burkitt's Lymphoma, control FITC-8 IgG MFI subtracted
Procedure: as §4

DOHH-2 [21] = test: as above; parameters: species or system human; conditions: DOHH-2, Follicular Lymphoma; control FITC-8 IgG MFI subtracted
Procedure: as §4

JVM-2 [22] = test: as above; parameters: species or system human; conditions: JVM-2, Mantle cell Lymphoma; control FITC-8 IgG MFI subtracted
Procedure: as §4

WSU-NHL [23] = test: as above; parameters: species or system human; conditions: Follicular Lymphoma, control FITC-8 IgG MFI subtracted
Procedure: as §4

SC-1 [24] = test: as above; parameters: species or system human; conditions: SC-1, Follicular Lymphoma; control FITC-8 IgG MFI subtracted
Procedure: as §4

Ramos = test: as above; parameters: species or system human; conditions: Burkitt's Lymphoma, control FITC-8 IgG MFI subtracted
Procedure: as §4

CL-01 [25] = test: as above; parameters: species or system human; conditions: CL-01, Burkitt's Lymphoma; control FITC-8 IgG MFI subtracted
Procedure: as §4

NCEB-1 [26] = test: as above; parameters: species or system human; conditions: NCEB-1, Mantle cell Lymphoma; control FITC-8 IgG MFI subtracted
Procedure: as §4

Daudi = test: as above; parameters: species or system human; conditions: Burkitt's Lymphoma, control FITC-8 IgG MFI subtracted
Procedure: as §4

Molecule	Apoptosis Induction (SP-53 [1])	Apoptosis Induction (BJAB [2])	Apoptosis Induction (Reh/KM-3)	Apoptosis Induction (RL [3])	Apoptosis Induction (Jeko-1 [4])	Apoptosis Induction (Granta 519 [5])	Apoptosis Induction (Rec-1 [6])	Apoptosis Induction (MC/CAR [7])	Apoptosis Induction (DOHH-2 [8])	Apoptosis Induction (JVM-2 [9])	Apoptosis Induction (WSU-NHL [10])	Apoptosis Induction (SC-1 [11])	Apoptosis Induction (CL-01 [12])	Apoptosis Induction (NCEB-1 [13])	MFI (MC/CAR [14])	MFI (SP-53 [15])	MFI (BJAB [16])	MFI (RL [17])	MFI (Jeko-1 [18])	MFI (Granta 519 [19])	other results
B11: fully human IgG1 antibody specific for ICAM-1; VH and VL sequences of FIG. 10 (SEQ ID NOs. 6 and 8) (antibody, listed as Homo sapiens, V domains shown) VH: EVQLLESGGGLVQPGGSLRLSCAASGFTFSNAWMSWVRQAPGKGLEWVAFIWYDGSNKYYADSVKGRFTISRDNSKNTLYLQMNSLRAEDTAVYYCARYSGWYFDYWGQGTLVTVSS VL: QSVLTQPPSASGTPGQRVTISCTGSSSNIGAGYDVHWYQQLPGTAPKLLIYDNNNRPSGVPDRFSGSKSGTSASLAISGLRSEDEADYYCQSYDSSLSAWLFGGGTKLTVLG	−	+ (95-80%)	−	−	+ (95-80%)	+ (95-80%)	−	+ (95-80%)	−	−	−	−	++ (79-60%)	+ (95-80%)	120	90	310	100	30	260	MFI (Rec-1 [20]): 380; MFI (Raji): 420; MFI (DOHH-2 [21]): 100; MFI (JVM-2 [22]): 100; MFI (WSU-NHL [23]): 0; MFI (SC-1 [24]): 0; MFI (Ramos): 100; MFI (CL-01 [25]): 600; MFI (NCEB-1 [26]): 340; MFI (Daudi): 150
C11: fully human IgG1 antibody specific for surface IgM; VH and VL sequences of FIG. 11 (SEQ ID NOs. 10 and 12) (antibody, listed as Homo sapiens, V domains shown) VH: EVQLLESGGGLVQPGGSLRLSCAASGFTFGSYEMNWVRQAPGKGLEWVSVIYSGGSTYYADSVEGRFTISRDNSKNTLYLQMNSLRAEDTAVYYCARDTNPYYYYGMDVWGQGTLVTVSS VL: QSVLTQPPSASGTPGQRVTISCSGSSSNIGNNAVNWYQQLPGTAPKLLIYRNNQRPSGVPDRFSGSKSGTSASLAISGLRSEDEADYYCQSYDSSLNGQVFGGGTKLTVLG	−	+ (95-80%)	−	−	++ (79-60%)	+ (95-80%)	−	−	−	−	−	−	+ (95-80%)	−	0	360	510	210	1040	60	MFI (Rec-1 [20]): 900; MFI (Raji): 20; MFI (DOHH-2 [21]): 90; MFI (JVM-2 [22]): 10; MFI (WSU-NHL [23]): 60; MFI (SC-1 [24]): 50; MFI (Ramos): 240; MFI (CL-01 [25]): 60; MFI (NCEB-1 [26]): 10; MFI (Daudi): 450
